Changes are numbered by the printed parent chain. Names may count otherwise.

B1: FGF10 single-point mutant V123I (ligand)
chain: MGSSHHHHHHSSGLVPRGSHMLGQDMVSPEATNSSSSSFSSPSSAGRHVRSYNHLQGDVRWRKLFSFTKYFLKIEKNGKVSGTKKENCPYSILEITSVEIGVVAIKAINSNYYLAMNKKGKLYGSKEFNNDCKLKERIEENGYNTYASFNWQHNGRQMYVALNGKGAPRRGQKTRRKNTSAHFLPMVVHS
B2: FGF10 single-point mutant Q175E (ligand)
chain: B1 chain with I105V, Q157E
B3: FGF10 single-point mutant N181D (ligand)
chain: B1 chain with I105V, N163D

The target in the experiment is FGF receptor 2b (FGFR2b) naturally expressed on 4MBr-5 rhesus monkey bronchial epithelial cells (rhesus monkey). In words: cell-based or functional assay.
As for B1, the “ED50, proliferation of lung epithelial 4MBr-5 cells (resazurin)” value (“ED50, proliferation” for short) amounted to 0.4 ng/mL.
Regarding B2, the “ED50, proliferation” value is 0.2 ng/mL.
As to B3, the “ED50, proliferation” value is 1.6 ng/mL.

The record behind these values is patent US20250353888A1 (ENANTIS S R O, published 2025).
